From PMC12489471, “A multi-dentate, cooperative interaction between endo- and exo-ribonucleases within the bacterial RNA degradosome” (Nucleic Acids Research, 2025)

B3: E. coli PNPase core (domain or fragment, UniProt P05055 1-552, looked up)
chain: MLNPIVRKFQYGQHTVTLETGMMARQATAAVMVSMDDTAVFVTVVGQKKAKPGQDFFPLTVNYQERTYAAGRIPGSFFRREGRPSEGETLIARLIDRPIRPLFPEGFVNEVQVIATVVSVNPQVNPDIVAMIGASAALSLSGIPFNGPIGAARVGYINDQYVLNPTQDELKESKLDLVVAGTEAAVLMVESEAQLLSEDQMLGAVVFGHEQQQVVIQNINELVKEAGKPRWDWQPEPVNEALNARVAALAEARLSDAYRITDKQERYAQVDVIKSETIATLLAEDETLDENELGEILHAIEKNVVRSRVLAGEPRIDGREKDMIRGLDVRTGVLPRTHGSALFTRGETQALVTATLGTARDAQVLDELMGERTDTFLFHYNFPPYSVGETGMVGSPKRREIGHGRLAKRGVLAVMPDMDKFPYTVRVVSEITESNGSSSMASVCGASLALMDAGVPIKAAVAGIAMGLVKEGDNYVVLSDILGDEDHLGDMDFKVAGSRDGISALQMDIKIEGITKEIMQVALNQAKGARLHILGVMEQAINAPRGDISEFA
notes: polynucleotide phosphorylase (PNPase) core lacking the KH and S1 domains, E. coli, aa 1–552 by the methods (1–550 in the results and a legend); also called PNPase core (1–550); PNPase core (aa 1–552); source: E. coli Evo21(DE3), purified (Ni-NTA, intein cleavage, HIC, Q, Superdex 200); not shown: Mycobacterium xenopi GyrA intein, C-terminal, cleaved; His8, C-terminal, cleaved

Key:
[1] = target: S. enterica PNPase core (Salmonella enterica serovar Typhimurium) (UniProt Q8ZLT3); assay: cryo-EM structure; purified PNPase core and RNase E-muGFP-CHis mixed 1:2, complex separated on Superdex 200 Increase in 20 mM Tris–HCl pH 8.0, 25 mM MgCl2, 150 mM KCl, 1 mM TCEP; 8 mM CHAPSO; E. coli and S. enterica proteins
E. coli PNPase core = target: B3; assay: as above; settings: both partners purified
PNPase core = assay: Cryo-EM of E. coli PNPase core:RNase E complex; format: binding; settings: 20 mM Tris–HCl pH 8.0, 25 mM MgCl2, 150 mM KCl, 1 mM TCEP
Protocol: The PNPase core encoding sequence from E. coli (aa 1–552), Salmonella enterica serovar Typhimurium (UniProt: Q8ZLT3) (aa 1–552), or Pseudomonas aeruginosa (strain PAO1, UniProt: Q9HV59) (aa 1–553) was amplified using corresponding genomic DNA as a template and cloned into pExp-Mxe-CHis expression vector. The protein of interest, produced as a fusion with C-terminal 8×His-tagged Mycobacterium xenopi GyrA intein, was expressed in Evo21(DE3) cells at 18°C overnight following induction with 0.4 mM IPTG. […] After cleavage, the protein buffer was exchanged using HiPrep 26/10 desalting column (Cytiva), and the protein solution was reapplied to Ni-NTA resin to remove His-tagged intein and uncleaved material. […]
Purified PNPase core and RNE-muGFP-CHis proteins were mixed in 1:2 ratio and their complex were separated on the Superdex 200 Increase 10/300 GL column (Cytiva) equilibrated with cryo-EM Buffer (20 mM Tris–HCl, pH 8.0, 25 mM MgCl2, 150 mM KCl, 1 mM TCEP). […] The samples were mixed with CHAPSO (3-([3-cholamidopropyl]dimethylammonio)-2-hydroxy-1-propanesulfonate) at a final concentration of 8 mM before being applied onto R2/2 Au Ultrafoil grids (Quantifoil) that had been pre-treated by glow-discharge (PELCO easiGLOW: 60 s, 25 mA, 0.39 mBar). […]

[2] = target: the molecule itself; assay: cryo-EM structure; PNPase core with RNase E peptide 960–1061; resolution of the peptide insufficient to align the sequence
[3] = target: T1, PNPase carrying a C-terminal Hisx6 tag (E. coli polynucleotide phosphorylase) (E. coli, UniProt P05055 1-711); assay: SPR; PNPase with C-terminal His6 tag immobilised on Series S Sensor Chip NTA (5 RU); Biacore T200, 25°C; 20 mM HEPES pH 7.2, 150 mM NaCl, 5 mM MgCl2, 0.5 mM TCEP, 0.05% Tween 20; six peptide concentrations up to 9000 nM (up to 5000 nM for RNase E 985–1061); contact 60 s, dissociation 120 s; settings: both partners purified
T1 construct: polynucleotide phosphorylase (PNPase), E. coli; Immobilised through the His tag on an NTA chip for SPR; also called PNPase C-His; PNPase with a 6xHisTag at the CTD; source: E. coli Evo21(DE3), purified (Ni-NTA, butyl-Sepharose HIC, Q, Superdex S200); not shown: His6, C-terminal, kept
T1 sequence (looked up): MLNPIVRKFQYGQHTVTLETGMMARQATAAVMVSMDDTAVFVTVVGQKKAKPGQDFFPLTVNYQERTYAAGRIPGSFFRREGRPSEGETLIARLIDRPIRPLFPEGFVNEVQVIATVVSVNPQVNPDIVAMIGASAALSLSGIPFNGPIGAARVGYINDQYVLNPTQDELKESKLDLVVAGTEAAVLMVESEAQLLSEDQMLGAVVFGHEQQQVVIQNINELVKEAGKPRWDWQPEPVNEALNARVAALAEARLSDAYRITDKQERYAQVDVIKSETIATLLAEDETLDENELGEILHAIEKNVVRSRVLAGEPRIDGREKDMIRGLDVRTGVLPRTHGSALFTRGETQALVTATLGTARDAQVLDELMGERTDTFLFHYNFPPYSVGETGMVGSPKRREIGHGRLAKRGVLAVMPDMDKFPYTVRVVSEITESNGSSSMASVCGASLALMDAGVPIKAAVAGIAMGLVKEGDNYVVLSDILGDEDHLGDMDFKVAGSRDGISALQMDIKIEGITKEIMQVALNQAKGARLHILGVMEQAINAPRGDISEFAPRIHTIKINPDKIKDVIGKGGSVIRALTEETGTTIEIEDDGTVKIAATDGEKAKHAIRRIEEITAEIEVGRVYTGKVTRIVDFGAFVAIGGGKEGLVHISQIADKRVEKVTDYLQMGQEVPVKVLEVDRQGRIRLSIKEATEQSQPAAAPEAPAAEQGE

[4] = target: T1, PNPase carrying a C-terminal Hisx6 tag …; assay: as above; settings: both partners purified; remark: listed apart in the source
[5] = target: T2, PNPase carrying a C-terminal Hisx6 tag (E. coli polynucleotide phosphorylase) (E. coli, UniProt P05055 1-711); assay: SPR; settings: both partners purified
T2 construct: Held on the NTA chip by its His tag in the SPR; also called PNPase C-His; PNPCHis; source: E. coli Evo21(DE3), purified (Ni-NTA, butyl-Sepharose, Q, SEC); not shown: His6, C-terminal, kept
T2 sequence (looked up): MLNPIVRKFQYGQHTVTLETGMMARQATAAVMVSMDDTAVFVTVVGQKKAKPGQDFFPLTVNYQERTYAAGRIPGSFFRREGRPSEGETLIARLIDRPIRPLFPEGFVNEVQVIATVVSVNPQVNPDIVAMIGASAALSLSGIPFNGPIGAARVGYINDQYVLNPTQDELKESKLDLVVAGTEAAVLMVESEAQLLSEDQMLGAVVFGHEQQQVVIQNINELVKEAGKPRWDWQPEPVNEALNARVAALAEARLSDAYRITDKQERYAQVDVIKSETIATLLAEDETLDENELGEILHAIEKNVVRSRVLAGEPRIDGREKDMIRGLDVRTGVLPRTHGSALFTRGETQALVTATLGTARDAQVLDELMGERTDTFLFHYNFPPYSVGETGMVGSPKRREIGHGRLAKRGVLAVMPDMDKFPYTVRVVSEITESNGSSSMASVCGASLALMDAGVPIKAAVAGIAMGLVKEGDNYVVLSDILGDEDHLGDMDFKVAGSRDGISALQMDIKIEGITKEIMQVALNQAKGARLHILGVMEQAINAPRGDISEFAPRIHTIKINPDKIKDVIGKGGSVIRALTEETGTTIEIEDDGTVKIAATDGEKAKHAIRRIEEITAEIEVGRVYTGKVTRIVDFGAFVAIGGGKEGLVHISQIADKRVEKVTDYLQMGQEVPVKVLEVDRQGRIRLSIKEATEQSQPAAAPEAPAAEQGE

Molecule: S. enterica RNase E 921–1067-muGFP (domain or fragment)
- stoichiometry N (RNase E peptide per PNPase trimer) [1]: 1

B1: E. coli RNase E 921–1061-muGFP (domain or fragment, UniProt P21513 921-1061, looked up)
chain: AVTEQPQVITESDVAVAQEVAEQAEPVVEPQEETADIEEVVETAEVVVAEPEVVAQPAAPVVAEVAAEVETVAAVEPEVTVEHNHATAPMTRAPAPEYVPEAPRHSDWQRPTFAFEGKGAAGGHTATHHASAAPARPQPVE
notes: Only residues 1003–1057 are built in the model; also called RNase E-muGFP-Chis; RNE-muGFP-CHis; source: E. coli Evo21(DE3), purified (Ni-NTA, amylose, TEV, Q, Superdex 200); not shown: MBP, N-terminal, cleaved; muGFP, C-terminal, kept; His8, C-terminal, kept
- stoichiometry N (E. coli PNPase core): 1 RNase E peptide per PNPase trimer

B2: RNase E 921–1061-muGFP (protein, UniProt P21513 921-1061, looked up, fragment)
chain: AVTEQPQVITESDVAVAQEVAEQAEPVVEPQEETADIEEVVETAEVVVAEPEVVAQPAAPVVAEVAAEVETVAAVEPEVTVEHNHATAPMTRAPAPEYVPEAPRHSDWQRPTFAFEGKGAAGGHTATHHASAAPARPQPVE
modifications: muGFP fusion
- binding mode / stoichiometry with E. coli PNPase core (PNPase core): only one RNase E peptide engages with a PNPase trimer, interacting with two protomers

Molecule: B3
- stoichiometry N [2]: 3

B4: RNase E 985-1053 (domain or fragment, E. coli, UniProt P21513 985-1053, looked up)
chain: VAAEVETVAAVEPEVTVEHNHATAPMTRAPAPEYVPEAPRHSDWQRPTFAFEGKGAAGGHTATHHASAA
notes: the SPR methods name a peptide 960–1053; Lacks the terminal Pro-rich motif; Limits differ between results (985–1053) and methods (960–1053); also called RNase E peptide 985–1053; RNase E 960–1053 (methods); source: E. coli Evo21(DE3), pMxe vector, purified (Ni-NTA, amylose, TEV, Q, Superdex 75); not shown: His6, N-terminal, cleaved; MBP, N-terminal, cleaved; intein, C-terminal, cleaved
- Kd [3]: 100 µM
- Kd [4]: 11.5 µM
- koff [4]: 0.339 s⁻¹
- kon [4]: 29400 M⁻¹ s⁻¹

B5: RNase E 960 – 1061 R1056A (domain or fragment, E. coli, UniProt P21513 960-1061, looked up)
chain: VVETAEVVVAEPEVVAQPAAPVVAEVAAEVETVAAVEPEVTVEHNHATAPMTRAPAPEYVPEAPRHSDWQRPTFAFEGKGAAGGHTATHHASAAPAAPQPVE
notes: source: E. coli Evo21(DE3), purified (Ni-NTA, amylose, TEV cleavage, Q, SEC); not shown: His6, N-terminal, cleaved; MBP, N-terminal, cleaved; intein, C-terminal, cleaved
- kon [5]: 150000 M⁻¹ s⁻¹
